Reference: article PMC8934645, “Discovery of potent and versatile CRISPR–Cas9 inhibitors engineered for chemically controllable genome editing”

What was measured:
St3Cas9;AcrIIA24 = St3Cas9;AcrIIA24 (Streptococcus …, UniProt Q03JI6;A0A3G8FCC3 1-1388;1-104, |); test: EMSA; sgRNA; AcrIIA24 added before DNA; supershift; 20 mM Tris-HCl pH 7.6, 150 mM KCl, 5 mM EDTA (Results text: 10 mM EDTA), 5 mM MgCl2, 1 mM DTT, 5% glycerol, 50 ug/ml heparin, 0.01% Tween 20, 100 ug/ml BSA; RNP and DNA steps 37 C 10 min, Acr RT 20 min; RNP 256 nM, DNA 20 nM; RNA EMSA 256 nM Cas9 and sgRNA, 37 C; conditions: protein: recombinant;recombinant; tags: His (pET28a, Ni-NTA);tag removed by TEV; copies: 1;1; label: Cy5 on target strand; blunt
St1Cas9;AcrIIA30 = St1Cas9;AcrIIA30 (Streptococcus …, UniProt Q03LF7; 1-1121;, |); test: EMSA; sgRNA; AcrIIA30 added after DNA; supershift; 20 mM Tris-HCl pH 7.6, 150 mM KCl, 5 mM EDTA (Results text: 10 mM EDTA), 5 mM MgCl2, 1 mM DTT, 5% glycerol, 50 ug/ml heparin, 0.01% Tween 20, 100 ug/ml BSA; RNP and DNA steps 37 C 10 min, Acr RT 20 min; RNP 256 nM, DNA 20 nM; RNA EMSA 256 nM Cas9 and sgRNA, 37 C; conditions: protein: recombinant;recombinant; tags: His (pET28a, Ni-NTA);tag removed by TEV; copies: 1;1; label: Cy5 on target strand; blunt
SpyCas9;AcrIIA32.1 = SpyCas9;AcrIIA32.1 (Streptococcus pyogenes;Streptococcus …, UniProt Q99ZW2; 1-1368;, |); test: EMSA; sgRNA; AcrIIA32.1 added after DNA; supershift; 20 mM Tris-HCl pH 7.6, 150 mM KCl, 5 mM EDTA (Results text: 10 mM EDTA), 5 mM MgCl2, 1 mM DTT, 5% glycerol, 50 ug/ml heparin, 0.01% Tween 20, 100 ug/ml BSA; RNP and DNA steps 37 C 10 min, Acr RT 20 min; RNP 256 nM, DNA 20 nM; RNA EMSA 256 nM Cas9 and sgRNA, 37 C; conditions: protein: recombinant;recombinant; tags: ;tag removed by TEV; label: Cy5 on target strand; blunt

B1: Substrate DNA, St3Cas9 sgRNA target (dsDNA)
DNA 1: CTCACGGGTGTCATTCTCCACTCAGTGGCAGACCTTGCTCCCGCGAGGAGTAGTCG
DNA 2: CGACTACTCCTCGCGGGAGCAAGGTCTGCCACTGAGTGGAGAATGACACCCGTGAG
St3Cas9;AcrIIA24
  binding result: binds

B2: Substrate DNA, St1Cas9 sgRNA target (dsDNA)
DNA 1: CTCACGGGTGTCATTCTCCACTCAGTGGCAGACCTTGCTCCCGCGAGGAGTAGTCG
DNA 2: CGACTACTCCTCGCGGGAGCAAGGTCTGCCACTGAGTGGAGAATGACACCCGTGAG
St1Cas9;AcrIIA30
  binding result: binds

B3: Substrate DNA, SpyCas9 sgRNA target (dsDNA)
DNA 1: CTCACGGGTGTCATTCTCCACTCAGTGGCAGACCTTGCTCCCGCGAGGAGTAGTCG
DNA 2: CGACTACTCCTCGCGGGAGCAAGGTCTGCCACTGAGTGGAGAATGACACCCGTGAG
SpyCas9;AcrIIA32.1
  binding result: binds
